Laboratory results taken from PMC4118869 (PLoS ONE, 2014).

B1: R2b-D8 (VHH)
VHH: QVQLVESGGGLVQPGGSLRLSCAASGFTFSWYDVGWYRRAPGKERELVADIASTRGTTNYADSVKGRFTISRDNAKNSVYLQMNSLKPEDTAVYYCNTRRDWRDYWGQGIQVTVSS
notes: source: E. coli WK6 periplasm, purified (Talon IMAC, Superdex 75 SEC)
B2: R1a-A5 (VHH)
VHH: QVQLVESGGGLVQPGGSLRLSCSASGSAVLFSTYPMSWYRQAPGKQRELVAAVTTDGSTSYADYAKGRFTISRDNAKNTVYLQMNSLKPEDTAVYYCNARDGFFNRYDYWGQGTQVTVSS
notes: also called R1a-A5 monovalent; source: E. coli WK6 periplasm, purified (Talon IMAC, Superdex 75 SEC)
B3: R1a-B6 (VHH)
VHH: QVQLVESGGGLVQPGGSLRLSCAASGSFFSRYRMGWYRQAPGEQRELVASIAYDGSTSYADPVKGRFTISRDNANTVHLQMYSLKPDDTAVYYCNLDPPGILYWGQGTQVTVSS
notes: also called R1a-B6 monovalent; source: E. coli WK6 periplasm, purified (Talon IMAC, Superdex 75 SEC)
B4: R2a-G8 (VHH)
VHH: QLQLAESGGGLVQAGGSLRLSCAASGSTLNNNAIGWFRQAPGKEREGVSCMNSRDGTTNYADSVKGRFTISRDVAKNTVYLQMNSLKPEDTAVYFCAVKGFAPFLIGCPWGKAEYDYWGQGTQVTVSS
notes: as for B1
B5: R2b-D9 (VHH)
VHH: QVQLVESGGGLVQPGGSLRLSCLASGSAFSLYTMGWYRQAPGNQRELVAAITSGESTNYADSVKGRFTISRDNAKNTVYLQMNSLKPEDTAVYYCNADPLSTGWGQYSYWGQGTQVTVSS
notes: as for B1

Assays:
[1] = target: phage displayed HA gene fragment D363-G478 (Influenza A virus A/California/07/2009 …, UniProt C3W5X2); assay: ELISA; conditions: both partners purified
[2] = target: hemagglutinin of A/California/07/2009 (H1N1)pdm09, in the influenza virus antigen standard (Influenza A virus A/California/07/2009 …, UniProt C3W5X2, strain); assay: ELISA; conditions: one partner purified
[3] = target: recombinant H9-HA, A/HongKong/1073/99 (H9N2) (Influenza A virus A/Hong Kong/1073/99 …, UniProt Q9ICY5, strain); assay: SPR; conditions: both partners purified
[4] = target: hemagglutinin of A/Brisbane/10/2007 (H3N2), in the influenza virus antigen standard (Influenza A virus A/Brisbane/10/2007 …, UniProt A8W8K8, strain); assay: ELISA; conditions: one partner purified
[5] = target: hemagglutinin of A/Singapore/01/57 (H2N2), in the influenza virus antigen standard (Influenza A virus A/Singapore/1/1957 …, UniProt Q67333, strain); assay: ELISA; conditions: one partner purified
[6] = target: hemagglutinin of A/Anhui/01/2005 (H5N1), in the influenza virus antigen standard (Influenza A virus A/Anhui/1/2005 (H5N1), UniProt Q1WDM0, strain); assay: ELISA; conditions: one partner purified
[7] = target: hemagglutinin of A/HongKong/213/2003 (H5N1), in the influenza virus antigen standard (Influenza A virus A/Hong Kong/213/2003 …, UniProt Q4H2E2, strain); assay: ELISA; conditions: one partner purified
[8] = target: hemagglutinin of A/Indonesia/05/2005 (H5N1), in the influenza virus antigen standard (Influenza A virus A/Indonesia/05/2005 …, UniProt A5A5L7, strain); assay: ELISA; conditions: one partner purified
[9] = target: T1, recombinant H3-HA, A/Brisbane/10/2007 (H3N2) (Influenza A virus A/Brisbane/10/2007 …, UniProt A8W8K8, strain); assay: SPR; data not shown: sdAbs on immobilised recombinant H3-HA and H7-HA; conditions: both partners purified
T1 construct: source: bought: Protein Sciences

[10] = target: T2, recombinant H7-HA, A/Netherlands/219/2003 (H7N7) (Influenza A virus …, UniProt Q6VMK1); assay: as above; conditions: both partners purified
T2 construct: source: bought: Protein Sciences

[11] = target: phage displayed HA gene fragment P66-I282 (Influenza A virus A/California/07/2009 …, UniProt C3W5X2); assay: ELISA; conditions: both partners purified
[12] = target: phage displayed HA gene fragment L193-K225 (Influenza A virus A/California/07/2009 …, UniProt C3W5X2); assay: ELISA; conditions: both partners purified
[13] = target: recombinant H1-HA (D18-I530), A/California/06/2009 (H1N1)pdm09 (Influenza A virus A/California/06/2009 …, UniProt C3W5S1, strain); assay: SPR; conditions: both partners purified
[14] = target: recombinant H5-HA, A/Vietnam/1203/2004 (H5N1) (Influenza A virus A/Vietnam/1203/2004 …, UniProt Q5EP31, strain); assay: SPR; conditions: both partners purified
[15] = target: T3, recombinant H2-HA, A/Japan/305/57 (H2N2) (Influenza A virus A/Japan/305/1957 …, UniProt P03451, strain); assay: SPR; conditions: both partners purified
T3 construct: source: bought: E-Enzymes (Protein Sciences in the SPR methods)

[16] = target: recombinant HA1 domain (D18-R344), A/California/06/2009 (H1N1)pdm09 (Influenza A virus A/California/06/2009 …, UniProt C3W5S1, strain); assay: SPR; conditions: both partners purified

Binder	binding result [1]	binding result [2]	binding result [3]	binding result [4]	binding result [5]	binding result [6]	binding result [7]	binding result [8]	binding result [9]	binding result [10]	binding result [11]	binding result [12]	Kd [13] [nM]	Kd [14] [nM]	Kd [3] [nM]	koff [13] [s⁻¹]	kon [13] [M⁻¹ s⁻¹]	koff [14] [s⁻¹]	kon [14] [M⁻¹ s⁻¹]	Kd [15] [nM]	further results
B1	binds	binds	no binding	no binding	binds	binds	binds	binds	no binding	no binding											
B2	no binding	binds	no binding	no binding		binds	binds	binds	no binding	no binding	no binding	no binding	1.87	0.18							binding result [15]: no binding
B3	no binding	binds		no binding	binds	binds	binds	binds	no binding	no binding	no binding	no binding	0.86	0.52	6.89						
B4		binds	no binding	no binding		binds	binds	binds	no binding	no binding	no binding	no binding	3.55	9.07		0.000798	225000	0.00223	252000	18.5	Kd [16]: 7.66 nM; koff [15]: 0.0142 s⁻¹; kon [15]: 764000 M⁻¹ s⁻¹
B5	no binding	binds		no binding	binds	binds	binds	binds	no binding	no binding	no binding	no binding	0.18	0.15	128	2.96e-05	167000	2.08e-05	141000	2.17	koff [3]: 0.0528 s⁻¹; kon [3]: 413000 M⁻¹ s⁻¹; koff [15]: 0.000163 s⁻¹; kon [15]: 75400 M⁻¹ s⁻¹
